Values of other authors, collected in publication PMC3012698, “Characterization of a Novel Interaction between Bcl-2 Members Diva and Harakiri” (PLoS ONE, 2010).

Conditions: ref [10]
Protocol: Circular dichroism (CD) experiments were performed on Harakiri's cytosolic domain to obtain information on its conformational behavior. […] Thus, the cytosolic domain of Harakiri is largely unstructured. Consequently, the NMR spectra of Hrk_ΔTM show small amide ^1H chemical shift dispersion (from ∼7.9 to 8.7 ppm) and severe signal overlap ( Fig. 6 ). These spectral features together with the absen ...

Substance | structural state of unbound BH3-only protein | folding upon binding to Bcl-2 members
Bmf: BH3-only protein Bmf | unstructured | –
Bim: BH3-only protein Bim | unstructured | undergoes partial folding upon binding to Bcl-2 members
